Experimental data from patent US20220040319A1 (Regeneron, published 2022).
Where two headings read alike, the source gives them in different places.

Legend:
human MET on cells [1] = biological target: T1, human MET on cells (human, UniProt P08581 25-1390); test: cell-based or functional assay
human MET on cells [2] = biological target: T1, human MET on cells; test: cell-based or functional assay; remark: listed apart in the source
[3] = biological target: T2, hMet.mmh (human MET extracellular domain with C-terminal myc-myc-hexahistidine tag) (human, UniProt P08581 309-914; P08581 27-307); test: SPR 37C, antibody captured
T2 construct: soluble monomeric MET; also called monomeric human MET
Description: (§1) The anti-Met antibodies tested in this example were bivalent monospecific binders of MET.
(§2) Kinetic association (kₐ) and dissociation (kd) rate constants were determined by fitting the real-time sensorgrams to a 1:1 binding model using Scrubber 2.0c curve fitting software. Binding dissociation equilibrium constant (KD) and dissociative half-life (t1/2) were calculated from the kinetic rate constants as: […]

[4] = biological target: T3, hMET.mFc (dimeric human MET) (human, UniProt P08581 27-307); test: SPR 37C, antibody captured
T3 construct: soluble dimeric MET protein
Description: as §1, §2

[5] = biological target: T2, hMet.mmh (human MET extracellular …); test: SPR 37C, antibody captured; remark: listed apart in the source
Description: (§3) Kinetic association (kₐ) and dissociation (kd) rate constants were determined as described in Example 3.

[6] = biological target: T4, MET (c-Met, hepatocyte growth factor receptor) on cells (human, UniProt P08581 25-1390); test: cell-based or functional assay
[7] = biological target: T4, MET (c-Met, hepatocyte growth factor …); test: cell-based or functional assay; remark: listed apart in the source
[8] = biological target: T2, hMet.mmh (human MET extracellular …); test: SPR 37C, antibody captured; remark: listed apart in the source
Description: as §3
Throughout, for % Inhibition, HEK293/SRE-Luc Blocking Activity (HGF, 1 h mAb pre-bind): test concentration or dose not given here.

T4 sequence (P08581 25-1390 limits assumed, form in doubt): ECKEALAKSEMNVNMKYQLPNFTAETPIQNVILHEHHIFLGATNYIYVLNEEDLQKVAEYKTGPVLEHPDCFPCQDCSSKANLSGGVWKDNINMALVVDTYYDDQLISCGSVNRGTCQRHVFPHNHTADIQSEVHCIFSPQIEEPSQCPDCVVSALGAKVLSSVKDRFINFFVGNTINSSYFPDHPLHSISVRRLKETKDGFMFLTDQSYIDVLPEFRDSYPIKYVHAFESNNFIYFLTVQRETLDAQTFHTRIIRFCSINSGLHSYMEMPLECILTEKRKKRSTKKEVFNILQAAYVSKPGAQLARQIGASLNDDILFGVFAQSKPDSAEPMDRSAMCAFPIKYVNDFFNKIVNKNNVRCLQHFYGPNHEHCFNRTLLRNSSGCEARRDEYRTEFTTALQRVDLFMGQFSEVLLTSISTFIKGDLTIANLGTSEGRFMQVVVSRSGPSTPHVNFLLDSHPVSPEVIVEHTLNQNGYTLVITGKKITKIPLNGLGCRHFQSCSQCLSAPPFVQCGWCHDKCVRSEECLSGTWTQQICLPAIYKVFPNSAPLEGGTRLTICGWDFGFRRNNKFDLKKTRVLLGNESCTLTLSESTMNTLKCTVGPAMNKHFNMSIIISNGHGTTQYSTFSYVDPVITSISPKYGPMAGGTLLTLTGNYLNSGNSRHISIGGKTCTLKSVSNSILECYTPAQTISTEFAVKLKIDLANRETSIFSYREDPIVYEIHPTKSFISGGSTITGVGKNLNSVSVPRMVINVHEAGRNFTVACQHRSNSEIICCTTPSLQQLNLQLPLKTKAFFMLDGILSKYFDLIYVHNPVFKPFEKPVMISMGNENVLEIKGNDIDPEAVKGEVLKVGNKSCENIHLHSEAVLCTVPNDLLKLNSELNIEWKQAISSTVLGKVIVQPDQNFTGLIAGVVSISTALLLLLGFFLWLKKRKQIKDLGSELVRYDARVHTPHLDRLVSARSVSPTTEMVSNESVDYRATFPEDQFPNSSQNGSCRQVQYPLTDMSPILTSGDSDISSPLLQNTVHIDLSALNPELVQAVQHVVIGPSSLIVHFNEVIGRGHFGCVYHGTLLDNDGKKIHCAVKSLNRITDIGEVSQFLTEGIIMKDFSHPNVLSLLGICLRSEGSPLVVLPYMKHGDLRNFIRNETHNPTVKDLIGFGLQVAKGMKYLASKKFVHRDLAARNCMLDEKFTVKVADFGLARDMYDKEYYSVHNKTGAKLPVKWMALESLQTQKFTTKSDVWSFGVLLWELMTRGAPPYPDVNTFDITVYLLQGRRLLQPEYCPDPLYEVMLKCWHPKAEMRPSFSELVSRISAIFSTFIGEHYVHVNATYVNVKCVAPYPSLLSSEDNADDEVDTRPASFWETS
T1 sequence (P08581 25-1390 limits assumed, form in doubt): as above
T3 sequence (P08581 other isoform, or with tags, fused parts or gaps limits assumed, chain 1 of 2): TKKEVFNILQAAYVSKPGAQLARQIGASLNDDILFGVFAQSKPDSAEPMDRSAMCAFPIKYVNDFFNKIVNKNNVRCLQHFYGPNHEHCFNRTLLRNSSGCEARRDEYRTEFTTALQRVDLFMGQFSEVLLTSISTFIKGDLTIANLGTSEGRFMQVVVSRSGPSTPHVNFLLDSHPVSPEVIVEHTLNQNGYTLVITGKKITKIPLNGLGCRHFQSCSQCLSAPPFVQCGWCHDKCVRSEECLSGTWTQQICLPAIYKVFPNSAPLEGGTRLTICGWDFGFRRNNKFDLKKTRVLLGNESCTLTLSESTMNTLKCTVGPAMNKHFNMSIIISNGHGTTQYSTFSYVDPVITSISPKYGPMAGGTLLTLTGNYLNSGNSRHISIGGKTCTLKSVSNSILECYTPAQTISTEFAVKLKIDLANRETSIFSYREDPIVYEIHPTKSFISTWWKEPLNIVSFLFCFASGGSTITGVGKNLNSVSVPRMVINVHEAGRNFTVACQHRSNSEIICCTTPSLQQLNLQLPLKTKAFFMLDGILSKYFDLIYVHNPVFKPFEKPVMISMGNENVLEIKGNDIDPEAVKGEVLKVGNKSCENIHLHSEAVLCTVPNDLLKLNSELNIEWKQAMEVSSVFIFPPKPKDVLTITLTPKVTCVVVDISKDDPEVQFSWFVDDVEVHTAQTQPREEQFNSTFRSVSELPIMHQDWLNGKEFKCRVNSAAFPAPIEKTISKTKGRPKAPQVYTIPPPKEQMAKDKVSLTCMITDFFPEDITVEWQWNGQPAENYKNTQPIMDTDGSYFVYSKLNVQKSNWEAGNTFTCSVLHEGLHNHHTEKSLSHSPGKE
T3 sequence (P08581 27-307 limits assumed, chain 2 of 2): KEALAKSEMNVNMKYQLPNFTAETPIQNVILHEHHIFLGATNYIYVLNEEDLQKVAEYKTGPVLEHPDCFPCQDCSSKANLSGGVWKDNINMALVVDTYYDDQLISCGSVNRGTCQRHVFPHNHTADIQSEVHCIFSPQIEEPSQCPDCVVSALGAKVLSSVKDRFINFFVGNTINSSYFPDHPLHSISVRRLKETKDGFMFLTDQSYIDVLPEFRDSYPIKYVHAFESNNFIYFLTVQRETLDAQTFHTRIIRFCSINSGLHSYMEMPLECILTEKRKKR
T2 sequence (P08581 other isoform, or with tags, fused parts or gaps limits assumed, chain 1 of 2): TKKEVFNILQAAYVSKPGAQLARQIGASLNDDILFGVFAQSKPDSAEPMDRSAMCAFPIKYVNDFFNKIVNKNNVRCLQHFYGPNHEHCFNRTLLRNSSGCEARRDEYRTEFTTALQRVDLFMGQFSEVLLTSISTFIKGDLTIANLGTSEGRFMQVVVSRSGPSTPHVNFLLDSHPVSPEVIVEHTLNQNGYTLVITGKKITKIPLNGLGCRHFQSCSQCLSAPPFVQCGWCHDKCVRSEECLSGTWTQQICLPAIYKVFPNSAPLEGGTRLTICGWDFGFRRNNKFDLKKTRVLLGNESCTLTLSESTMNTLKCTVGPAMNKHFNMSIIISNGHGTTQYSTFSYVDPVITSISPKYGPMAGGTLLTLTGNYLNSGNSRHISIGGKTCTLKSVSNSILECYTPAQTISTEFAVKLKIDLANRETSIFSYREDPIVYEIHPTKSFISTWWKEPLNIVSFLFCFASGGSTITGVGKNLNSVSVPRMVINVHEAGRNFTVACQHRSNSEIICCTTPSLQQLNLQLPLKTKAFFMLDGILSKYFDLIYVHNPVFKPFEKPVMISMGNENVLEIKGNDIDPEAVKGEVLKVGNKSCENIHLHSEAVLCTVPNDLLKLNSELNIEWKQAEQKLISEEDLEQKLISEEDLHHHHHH
T2 sequence (P08581 27-307 limits assumed, chain 2 of 2): as the sequence (P08581 27-307 limits assumed, chain 2 of 2) above

B1: H4H14634D (bispecific antibody, human IgG4, V domains shown)
VH 1: QVQLQESGPGLVKPSETLSLTCTVSGDSISSYYWTWIRQPPGKGLEWIGYIFYRGGTTYNPSLKSRVTISVDTSKNQFSLKLRSVTAADTAVYYCARGDDLLVVTSVYWYIDLWGRGTLVTVSS
VH 2: EVQLVESGGGLVQPGGSLRLSCAASGFIVTTNYMTWLRQAPGKGLEWVSLIYSSGHTYYADSVKGRFTISRHNSKNTLYLQMDSLRAEDTAVYYCASAFAADVFDIWGQGTMVTVSS
VL: not shown
% Inhibition, HEK293/SRE-Luc Blocking Activity (HGF, 1 h mAb pre-bind) (human MET on cells [1]): 85%
EC50, Ligand (HGF)-Independent HEK293/SRE-Luc Activation (human MET on cells [1]): 0.09 nM
Fold Response, Ligand (HGF)-Independent HEK293/SRE-Luc Activation (human MET on cells [1]): 3.4 fold
IC50, HEK293/SRE-Luc Blocking Activity (HGF, 1 h mAb pre-bind) (human MET on cells [1]): 0.0097 nM
Relative MET Level, SNU5 cells, 18 hrs (human MET on cells [2]): 0.45 relative to control (hFc)

B2: H4H14640D (bispecific antibody, human IgG4, V domains shown)
VH 1: QVQLVQSGTEVKEPGASVKVSCKASGYSFTTYGISWLRQAPGQGLEWMGWISTYNGDTISAQMLQDRVTLTADTSTRTAYMELRSLRSDDTAVYYCARGHEYDSLVYSYWGQGTLVTVSS
VH 2: EVQLVESGGGLVQPGGSLRLSCAASGFIVTTNYMTWLRQAPGKGLEWVSLIYSSGHTYYADSVKGRFTISRHNSKNTLYLQMDSLRAEDTAVYYCASAFAADVFDIWGQGTMVTVSS
VL: not shown
% Inhibition, HEK293/SRE-Luc Blocking Activity (HGF, 1 h mAb pre-bind) (human MET on cells [1]): 89%
EC50, Ligand (HGF)-Independent HEK293/SRE-Luc Activation (human MET on cells [1]): 6.8 nM
Fold Response, Ligand (HGF)-Independent HEK293/SRE-Luc Activation (human MET on cells [1]): 2.5 fold
IC50, HEK293/SRE-Luc Blocking Activity (HGF, 1 h mAb pre-bind) (human MET on cells [1]): 0.52 nM
Relative MET Level, SNU5 cells, 18 hrs (human MET on cells [2]): 0.18 relative to control (hFc)

B3: H4H13312P2 (antibody, human IgG4, V domains shown)
VH: EVQLVESGGGLVQPGGSLRLSCAASGFIVTTNYMTWLRQAPGKGLEWVSLIYSSGHTYYADSVKGRFTISRHNSKNTLYLQMDSLRAEDTAVYYCASAFAADVFDIWGQGTMVTVSS
VL: not shown
notes: human IgG4 Fc (H4H), bivalent monospecific; also called parental antibody 2; M2
Kd [3]: 227 nM
T½ [3]: 0.7 min
Kd [4]: 2.79 nM
T½ [4]: 6.7 min
T½ [5]: 1.4 min
EC50 (read off the curve); HGF-independent SRE-driven luciferase signal in HEK293T cells [6]: ~0.5 nM
IC50 (read off the curve); blocking of HGF-dependent SRE-driven luciferase signal in HEK293T cells [7]: ~0.4 nM

B4: H4H14639D (bispecific antibody, human IgG4, V domains shown)
VH 1: EVQLVESGGGLVQPGTSLRLSCAASGFTFDDYAMHWVRQAPGKGLEWVSGITWNSYNIDYADSVKGRFTISRDNAKNSLYLQMNSLRAEDTALYYCAKDDDYSNYVYFDYWGQGTLVTVSS
VH 2: EVQLVESGGGLVQPGGSLRLSCAASGFIVTTNYMTWLRQAPGKGLEWVSLIYSSGHTYYADSVKGRFTISRHNSKNTLYLQMDSLRAEDTAVYYCASAFAADVFDIWGQGTMVTVSS
VL: not shown
notes: MET x MET bispecific, expressed as human IgG4; also called bispecific antibody No. 122; MET×MET bispecific antibody
T½ [8]: 70.8 min
koff [8]: 0.000163 s⁻¹
T½ [5]: 70.8 min
koff [5]: 0.000163 s⁻¹
IC50 (read off the curve); blocking of HGF-dependent SRE-driven luciferase signal in HEK293T cells [7]: ~0.4 nM

B5: H4H16449D (bispecific antibody, human IgG4, V domains shown)
VH 1: QVQLVESGGGVVQPGRSLRLSCAASGFTFSSFAMHWVRQAPGKGLEWVAVIWYDGSNDYYAASVKGRFTISRDNSKNTLYLEMNRLRAEDTAVYHCARDNWNYWGGMDVWGQGTTVTVSS
VH 2: EVQLVESGGGLVQPGGSLRLSCAASGFIVTTNYMTWLRQAPGKGLEWVSLIYSSGHTYYADSVKGRFTISRHNSKNTLYLQMDSLRAEDTAVYYCASAFAADVFDIWGQGTMVTVSS
VL: not shown
notes: MET x MET bispecific, expressed as human IgG4
T½ [8]: 39.3 min
koff [8]: 0.000294 s⁻¹

B6: H4H13306P2 (antibody, human IgG4, V domains shown)
VH: EVQLVESGGGLVQPGTSLRLSCAASGFTFDDYAMHWVRQAPGKGLEWVSGITWNSYNIDYADSVKGRFTISRDNAKNSLYLQMNSLRAEDTALYYCAKDDDYSNYVYFDYWGQGTLVTVSS
VL: not shown
notes: human IgG4 Fc (H4H), bivalent monospecific; also called parental antibody 1; M1
Kd [3]: 109 nM
T½ [3]: 0.7 min
Kd [4]: 2.15 nM
T½ [4]: 4.4 min
T½ [5]: 0.7 min
